This test has as its target Human PCSK9 form a' (human). Description: SPR ProteOn XPR36, antibody captured on anti-human IgG, PCSK9 variant as analyte, 25 C, 1:1 model.

By Kd is commonly meant the concentration at which binding is half-saturated. As usually defined, the koff is the first-order rate constant of dissociation. The low end stands for slow dissociation, the high end for fast dissociation. As a reminder, the kon is the rate constant with which the complex forms. The low end stands for slow association, the high end for fast association.

In turn, Evolocumab (antibody) gave a dissociation constant (Kd) of 185 pM, an off-rate (koff) of 2.29e-05 s⁻¹ and an association rate constant (kon) of 124000 M⁻¹ s⁻¹.

(Values after patent EP2975059A1.)
